Experimental data as given in paper PMC5018819 (Scientific Reports, 2016).

Experiments:
[1] = substrate: Nc1ncnc2c1ncn2[C@@H]1O[C@H](COP(=O)(O)OP(=O)(O)OP(=O)(O)O)[C@@H](O)[C@H]1O; assay: kinetic analysis of recombinant enzyme (substrate saturation); format: biochemical, P. falciparum; conditions: ATP varied, pH 7.8
Method: (§1) A continuous spectrophotometric 96-well plate assay was established for CK and EK activity based on an assay described. […] The reaction was initiated by addition of enzyme or substrate, as appropriate, and the rate of reaction was monitored by following the decrease in absorbance at 341 nm for 10 min at room temperature using a Thermo Multiska spectrophotometer. Experiments were carried out to ensure that coupling enzymes were not rate-limiting under any of the conditions used and control experiments lacking substrates and/or enzyme were carried out to correct for any background rate.
(§2) One substrate was held constant at the concentration specified above while the second substrate was varied. Any ATPase activity was controlled for and subtracted from the rates (PfEK only). Curves were plotted and Km and Vmax values estimated using Grafit 5 (Erithacus Software Ltd).

[2] = substrate: NCCO; assay: as above; format: biochemical, P. falciparum; conditions: Etn varied, ATP constant, pH 7.8
Method: as §1, §2

[3] = substrate: C[N+](C)(C)CCO; assay: purified protein, by the assay type; conditions: other: PfCK, Cho varied, ATP constant; pH 7.8

B1: PfEK (Plasmodium falciparum 3D7) (protein)
chain: EYQLREIDESEKEITQQRKKNSVTTKNFDNLSNSNSQITEMTNEQGVIPLREKDLTINVGDNRNLKVEEFMTNFISNVFENKNALFLYCKYVLLFYGKELLNENNVESLNFEIIKGGITNILVKVEDNIHQNKYLIRLYGPKTSEIINREREKLISNILCDKNISKKIYVFFPNGRIEEFKDGYALSREDIKNKDFQKEIAENLRILHDIQLDDTIYKKLQALQNIQGNRSSFLWSTLWKYFNTLKEERQKKYSFNPKAYILKLIDFDMLESIITEIQELCCKKNSPVVLCHCDLLSSNIIKTEGSSISFIDFEYSCPMERAYDIANHFNEYAGFNCEWDLTPNRSEEYHFIKHYLKTDDEQLINQLIDEIQPFYVCSHIVWGLWALLQGLHSVIDFDFINYGMTRLTAAFSVKFRSKL
Km ([1]; other: PfEK): 70 ± 30 µM | Km ([2]; other: PfEK): 80 ± 20 µM | Vmax ([2]; other: PfEK): 0.03 µmol/min/mg | kcat ([2]; other: PfEK): 0.025 s⁻¹ | kcat/Km ([2]; other: PfEK): 310 M⁻¹ s⁻¹

B2: PfCK (Plasmodium falciparum 3D7) (protein)
chain: MESKICDPIGLDKNKFRKVEEENEENSKIVENGQMTYNDDLEMFTTIQLNQEIDIRKNPFPLHMINQKNDIPLCAQEFSKLTDPLYIKKICLEKVHDWSRCNEDDVCVNQILSGLTNQLFEVSIKEDTAIEYRITRRHVLFRIYGKDVDALYNPLSEFEVYKTMSKYRIAPLLLNTFDGGRIEEWLYGDPLSIDDLKNKSILVGIANVLGKFHTLSRKRHLPEHWDKTPCVFKMMDRWRLAVSNYKNLDKVTLDINKYIQESHKFLKFIKIYTQIENIANDIVFCHNDLQENNIMNTNKCLRLIDFEYSGYNFLSADIANFFIETTIDYSYNAYPFFIINKKNYISYESRILFVTTYLSKYLDDSTAASDQDIIDQFLEAIEVQALGLHLIWAFWSIIRGYQTKSYNEFDFFLYAKERLKMYDEQKQYLMSKNIIKDYDD
notes: made in house
Km [3]: 210 ± 30 µM | Vmax [3]: 3.3 µmol/min/mg | kcat [3]: 2.9 s⁻¹ | kcat/Km [3]: 13800 M⁻¹ s⁻¹ | Km ([1]; other: PfCK): 130 ± 10 µM | Km ([2]; other: PfCK): 3300 ± 300 µM | Vmax ([2]; other: PfCK): 1.7 µmol/min/mg | kcat ([2]; other: PfCK): 1.5 s⁻¹ | kcat/Km ([2]; other: PfCK): 450 M⁻¹ s⁻¹
